The values that follow are results of earlier work, collected in article PMC11381289.

Data set [1] concerns the target TL (Mus musculus) (UniProt P14432).
The target is the same in data set [2]. The source holds these as a separate data set.

Where two headings read alike, the source gives them in different places.

UniProt P14432, sequence (P14432 27-314): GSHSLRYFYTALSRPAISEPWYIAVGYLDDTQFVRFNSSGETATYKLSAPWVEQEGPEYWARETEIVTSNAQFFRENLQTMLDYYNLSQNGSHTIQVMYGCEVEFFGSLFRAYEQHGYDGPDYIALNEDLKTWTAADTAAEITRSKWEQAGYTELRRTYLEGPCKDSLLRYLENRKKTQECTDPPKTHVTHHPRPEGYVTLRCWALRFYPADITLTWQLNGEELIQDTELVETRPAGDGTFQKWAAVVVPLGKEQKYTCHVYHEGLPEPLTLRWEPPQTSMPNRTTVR

Take CD8αα (from UniProt P01731): the Kd in the data set with TL (Mus musculus) [1] is 12 µM.

In the case of CD8αβ (from UniProt P01731), the dissociation constant (Kd) in the data set with TL (Mus musculus) [2] is above 90 µM.
